Test results as given in patent publication US20250170316A1.

Target: complement factor H present in serum (human) (UniProt P08603)
Experiment: cell-based or functional assay

UniProt P08603, sequence (P08603 19-1231 limits assumed): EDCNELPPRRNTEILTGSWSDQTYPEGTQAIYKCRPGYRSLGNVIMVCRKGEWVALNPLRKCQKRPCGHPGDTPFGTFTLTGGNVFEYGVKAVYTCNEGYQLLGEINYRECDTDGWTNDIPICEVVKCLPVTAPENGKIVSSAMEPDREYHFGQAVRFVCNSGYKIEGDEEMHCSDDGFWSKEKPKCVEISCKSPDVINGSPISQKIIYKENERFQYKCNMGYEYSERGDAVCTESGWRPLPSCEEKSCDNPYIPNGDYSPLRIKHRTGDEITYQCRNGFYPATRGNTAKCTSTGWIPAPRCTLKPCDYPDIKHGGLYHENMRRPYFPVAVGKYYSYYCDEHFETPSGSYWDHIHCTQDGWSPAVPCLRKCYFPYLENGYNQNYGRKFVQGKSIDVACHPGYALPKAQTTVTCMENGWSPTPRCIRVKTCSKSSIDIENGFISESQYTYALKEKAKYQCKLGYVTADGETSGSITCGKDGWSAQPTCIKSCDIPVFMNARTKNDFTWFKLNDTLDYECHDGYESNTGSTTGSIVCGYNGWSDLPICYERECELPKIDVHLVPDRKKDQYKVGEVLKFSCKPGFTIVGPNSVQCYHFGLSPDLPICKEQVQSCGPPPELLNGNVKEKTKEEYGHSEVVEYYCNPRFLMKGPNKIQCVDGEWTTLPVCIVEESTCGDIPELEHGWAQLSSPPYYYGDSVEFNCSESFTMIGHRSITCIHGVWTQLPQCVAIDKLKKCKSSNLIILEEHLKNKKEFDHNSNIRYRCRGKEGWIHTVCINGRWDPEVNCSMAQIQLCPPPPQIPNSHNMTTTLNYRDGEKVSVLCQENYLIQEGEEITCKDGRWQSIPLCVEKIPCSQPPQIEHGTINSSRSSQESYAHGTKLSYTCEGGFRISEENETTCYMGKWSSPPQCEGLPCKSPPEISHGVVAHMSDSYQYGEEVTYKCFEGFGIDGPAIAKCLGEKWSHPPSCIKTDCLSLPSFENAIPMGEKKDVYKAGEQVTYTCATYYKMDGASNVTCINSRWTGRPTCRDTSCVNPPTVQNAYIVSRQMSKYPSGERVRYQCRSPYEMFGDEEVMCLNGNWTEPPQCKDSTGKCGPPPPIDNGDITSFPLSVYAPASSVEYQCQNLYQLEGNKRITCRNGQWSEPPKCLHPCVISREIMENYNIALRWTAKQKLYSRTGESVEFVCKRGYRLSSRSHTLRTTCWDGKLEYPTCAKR

Question: “PspCN (residues 37-140 of pneumococcal surface protein C, PspC, of Streptococcus pneumoniae strain D39)” was tested. Which inhibition of acidified serum lysis of PNH-like (AET-treated) erythrocytes, IC50 did it give?
Answer: 27 nM
